For the data set, the target named is T1, PF3D7_0420300 D1 (Plasmodium falciparum, UniProt Q8I1N6 1956-2015).
T1 sequence: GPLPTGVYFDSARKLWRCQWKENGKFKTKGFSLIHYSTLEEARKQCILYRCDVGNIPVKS
Kind of data set: gcPBM; about 25 ug protein; PBS, 1% milk, 0.2 mg/ml BSA, salmon testes DNA, 0.03% Triton X-100. The note with it: tags: N-terminal GST (pGEX-4T-1), kept; label: surface-attached array probe.

B1: CACACA_negctrl_site1083 (dsDNA)
DNA 1: ATGAAAAAAAAAAAAAAAAAAAAAAAAAAAAAAATA
DNA 2: TATTTTTTTTTTTTTTTTTTTTTTTTTTTTTTTCAT
For B1, the binding signal is 9.02 ln median PBM intensity, better of two orientations.

B2: CACACA_negctrl_site706 (dsDNA)
DNA 1: TTTCTTATATTATATAAATATATAGATGTTAATGGT
DNA 2: ACCATTAACATCTATATATTTATATAATATAAGAAA
Regarding B2, the binding signal was 9.08 ln median PBM intensity, better of two orientations.

B3: CACACA_negctrl_site1491 (dsDNA)
DNA 1: GTAGCCTTTCTTTATAAAGGCAAACAAACAAAAAAT
DNA 2: ATTTTTTGTTTGTTTGCCTTTATAAAGAAAGGCTAC
On to B3, for which the binding signal is 9.04 ln median PBM intensity, better of two orientations.

B4: CACACA_negctrl_site129 (dsDNA)
DNA 1: AAGCATTTTTTTTAAAGCCTGTTCATCATCCTTACC
DNA 2: GGTAAGGATGATGAACAGGCTTTAAAAAAAATGCTT
For the molecule B4, the binding signal was 9.02 ln median PBM intensity, better of two orientations.

B5: CACACA_negctrl_site1407 (dsDNA)
DNA 1: CACATATACAAAAAGAAATGTTTAGTTGAAAATTAA
DNA 2: TTAATTTTCAACTAAACATTTCTTTTTGTATATGTG
In the case of B5, the binding signal is 9.06 ln median PBM intensity, better of two orientations.

B6: CACACA_site117 (dsDNA)
DNA 1: ATATATATAAAACACACACACAAAAAAAATAAAGAC
DNA 2: GTCTTTATTTTTTTTGTGTGTGTGTTTTATATATAT
B6: the binding signal was 10.6 ln median PBM intensity, better of two orientations.

B7: CACACA_negctrl_site1084 (dsDNA)
DNA 1: TTTTATTGATTATTCATAAATATGCTATTCATCTAA
DNA 2: TTAGATGAATAGCATATTTATGAATAATCAATAAAA
Take B7: the binding signal was 9.01 ln median PBM intensity, better of two orientations.

B8: CACACA_negctrl_site1241 (dsDNA)
DNA 1: ATTTTTTTTTTTTTTTTTTTTTTGTTTATACAAAAT
DNA 2: ATTTTGTATAAACAAAAAAAAAAAAAAAAAAAAAAT
Take B8: the binding signal was 9.04 ln median PBM intensity, better of two orientations.

B9: CACACA_negctrl_site730 (dsDNA)
DNA 1: AGATGATATATTATATATCCTTTTAATAAATGTAAT
DNA 2: ATTACATTTATTAAAAGGATATATAATATATCATCT
For B9, the binding signal is 9.03 ln median PBM intensity, better of two orientations.

B10: CACACA_negctrl_site1134 (dsDNA)
DNA 1: GTTTGATAACACCTACAAACTCTTTTTTTTTTTTTT
DNA 2: AAAAAAAAAAAAAAGAGTTTGTAGGTGTTATCAAAC
As to B10, the binding signal is 9.08 ln median PBM intensity, better of two orientations.

B11: CACACA_negctrl_site637 (dsDNA)
DNA 1: GTGTAAAGGTATTATTGTATTATTCAAAATAAAAAA
DNA 2: TTTTTTATTTTGAATAATACAATAATACCTTTACAC
Regarding B11, the binding signal was 9.07 ln median PBM intensity, better of two orientations.

B12: CACACA_negctrl_site491 (dsDNA)
DNA 1: ATTTAATATCACAATATATTTTTTACCCTTATCAGC
DNA 2: GCTGATAAGGGTAAAAAATATATTGTGATATTAAAT
As to B12, the binding signal is 9.04 ln median PBM intensity, better of two orientations.

B13: CACACA_site8011 (dsDNA)
DNA 1: AGCACCCACCAACACACACACACACCCACCCACCCA
DNA 2: TGGGTGGGTGGGTGTGTGTGTGTGTTGGTGGGTGCT
In the case of B13, the binding signal is 10.6 ln median PBM intensity, better of two orientations.

B14: CACACA_negctrl_site1603 (dsDNA)
DNA 1: TGATTTATCTATATTTTATAAGTTATTTATTTTTTT
DNA 2: AAAAAAATAAATAACTTATAAAATATAGATAAATCA
On to B14, for which the binding signal was 9.05 ln median PBM intensity, better of two orientations.

B15: CACACA_negctrl_site54 (dsDNA)
DNA 1: AATAAAAAAAAAATATATATTTTTTTTTTTTTTTTT
DNA 2: AAAAAAAAAAAAAAAAATATATATTTTTTTTTTATT
For B15, the binding signal is 9.09 ln median PBM intensity, better of two orientations.

B16: CACACA_negctrl_site1642 (dsDNA)
DNA 1: TGTTGCAAAACAAAAAAAAAAAAAAAAAATAATAAT
DNA 2: ATTATTATTTTTTTTTTTTTTTTTTGTTTTGCAACA
Regarding B16, the binding signal was 9.09 ln median PBM intensity, better of two orientations.

B17: CACACA_negctrl_site1408 (dsDNA)
DNA 1: ATTTATTTTAATTTTTTTTTTTCTCTTTTGGATCTA
DNA 2: TAGATCCAAAAGAGAAAAAAAAAAATTAAAATAAAT
Consider B17, for which the binding signal is 9.07 ln median PBM intensity, better of two orientations.

B18: CACACA_negctrl_site610 (dsDNA)
DNA 1: ATTATAAGAATTAAAAGAAACAAAATTTTAATTATA
DNA 2: TATAATTAAAATTTTGTTTCTTTTAATTCTTATAAT
For B18, the binding signal was 9.07 ln median PBM intensity, better of two orientations.

B19: CACACA_negctrl_site1423 (dsDNA)
DNA 1: TTTTTATAACTATATTATATAACTTTTGTACGAACT
DNA 2: AGTTCGTACAAAAGTTATATAATATAGTTATAAAAA
Turning to B19, the binding signal was 9.01 ln median PBM intensity, better of two orientations.

B20: CACACA_negctrl_site83 (dsDNA)
DNA 1: GTGTGGTTACAGACACGAACACATTTTTTAAATATT
DNA 2: AATATTTAAAAAATGTGTTCGTGTCTGTAACCACAC
Turning to B20, the binding signal is 9.09 ln median PBM intensity, better of two orientations.

B21: CACACA_negctrl_site1558 (dsDNA)
DNA 1: TCTTAAATATATAAATTGAAAAATATAAAAGTAATA
DNA 2: TATTACTTTTATATTTTTCAATTTATATATTTAAGA
Regarding B21, the binding signal was 9.06 ln median PBM intensity, better of two orientations.

B22: CACACA_negctrl_site116 (dsDNA)
DNA 1: ATTGGAAAATATGTTATATATATATATATATATATG
DNA 2: CATATATATATATATATATATAACATATTTTCCAAT
Take B22: the binding signal is 9.05 ln median PBM intensity, better of two orientations.

B23: CACACA_negctrl_site251 (dsDNA)
DNA 1: AAGAATGTTATATTATGATGCTGTCTTTTTTTAAGA
DNA 2: TCTTAAAAAAAGACAGCATCATAATATAACATTCTT
Take B23: the binding signal was 9.08 ln median PBM intensity, better of two orientations.

B24: CACACA_negctrl_site77 (dsDNA)
DNA 1: TCTTTATATCATCTTTCTAAATATATATATATATAA
DNA 2: TTATATATATATATATTTAGAAAGATGATATAAAGA
Consider B24, for which the binding signal is 9.07 ln median PBM intensity, better of two orientations.

B25: CACACA_negctrl_site1015 (dsDNA)
DNA 1: TATAAATAAAGACTTTTTTCTAACTTTTTTTTGTAT
DNA 2: ATACAAAAAAAAGTTAGAAAAAAGTCTTTATTTATA
Consider B25, for which the binding signal is 9.06 ln median PBM intensity, better of two orientations.

B26: CACACA_negctrl_site620 (dsDNA)
DNA 1: TTTTTTTACTTAATAGTTCAACATATATCTCAATGT
DNA 2: ACATTGAGATATATGTTGAACTATTAAGTAAAAAAA
As for B26, the binding signal is 9.02 ln median PBM intensity, better of two orientations.

B27: CACACA_negctrl_site173 (dsDNA)
DNA 1: TTTTATATATATATATATATATATATATATGTATAT
DNA 2: ATATACATATATATATATATATATATATATATAAAA
Take B27: the binding signal is 9.03 ln median PBM intensity, better of two orientations.

B28: CACACA_negctrl_site793 (dsDNA)
DNA 1: TCCTATAATTTTTTAATCAAAATATTTTATCCTTTG
DNA 2: CAAAGGATAAAATATTTTGATTAAAAAATTATAGGA
For the molecule B28, the binding signal was 9.02 ln median PBM intensity, better of two orientations.

B29: CACACA_negctrl_site583 (dsDNA)
DNA 1: AAAAAAAAAAAAAAAAAAAAAAAAATATATAATTTA
DNA 2: TAAATTATATATTTTTTTTTTTTTTTTTTTTTTTTT
In the case of B29, the binding signal is 9.05 ln median PBM intensity, better of two orientations.

B30: CACACA_negctrl_site905 (dsDNA)
DNA 1: TATAATAATAATAATAATAATAATAATAATAATAAT
DNA 2: ATTATTATTATTATTATTATTATTATTATTATTATA
Take B30: the binding signal is 9.03 ln median PBM intensity, better of two orientations.

Values taken from PMC11417369, “DNA sequence and chromatin differentiate sequence-specific transcription factor binding in the human malaria parasite Plasmodium falciparum”.
